The values below come from patent US20250296996A1, “ANGIOPOIETIN-RELATED PROTEIN 7-SPECIFIC ANTIBODIES AND USES THEREOF” (Broadwing Bio, Inc., priority 2022, published 2025).

In this experiment the test system is 3D human trabecular meshwork (HTM) cells co-cultured with human Schlemms' canal (HSC) cells. Kind of experiment: Outflow facility in bioengineered 3D HTM/HSC ex vivo human eye tissue model, ANGPTL7 or dexamethasone. The settings on record: 3D-HTM donors; 500 nM Dexamethasone or 50 ng/mL ANGPTL7 vs vehicle (DMSO). It counts as cell-based. As for the experimental part:
Experiments were conducted to determine the effects of ANGPTL7 on outflow facility in a bioengineered ex vivo human eye tissue model. Glauconix developed a proprietary technology allowing multi-layer growth of bioengineered 3D human trabecular meshwork (HTM) cells co-cultured with human Schlemms' canal (HSC) cells, thereby mimicking the architecture of the tissues responsible for pressure build-up in the human eye (FIG. 3A). This allows endpoint analyses relevant to IOP-modulation. This scaffolding of cells is used to compare treatment effects of vehicle (DMSO), dexamethasone (a steroid known to elevate IOP), and human ANGPTL7 protein on outflow facility.
Briefly, HTM cells were thawed and allowed to grow for about 7 days (media changes every 2 days). The HTM cells were seeded onto scaffolds and HSC cells were thawed on the same day; the HTM cells were allowed to grow for 7 days on the scaffolds with media changes every 2 days. HSCs were co-cultured on the back side of the HTM scaffolds and grown for 10-12 days with media changes every 2 days. […]
Samples were analyzed using One-way ANOVA (GraphPad Prism Software, Inc., La Jolla, CA), *P<0.05, **P<0.0.01, ***P<0.001 N=4 per treatment group. […] […]

Entries after “also recorded” stand apart in the source; their conditions may differ.

B1: ANGPTL7: human ANGPTL7 protein (angiopoietin-related protein 7), made by Biortus, used as treatment at 50 ng/mL (protein)
chain: QKLSKHKTPAQPQLKAANCCEEVKELKAQVANLSSLLSELNKKQERDWVSVVMQVMELESNSKRMESRLTDAESKYSEMNNQIDIMQLQAAQTVTQTSADAIYDCSSLYQKNYRISGVYKLPPDDFLGSPELEVFCDMETSGGGWTIIQRRKSGLVSFYRDWKQYKQGFGSIRGDFWLGNEHIHRLSRQPTRLRVEMEDWEGNLRYAEYSHFVLGNELNSYRLFLGNYTGNVGNDALQYHNNTAFSTKDKDNDNCLDKCAQLRKGGYWYNCCTDSNLNGVYYRLGEHNKHLDGITWYGWHGSTYSLKRVEMKIRPEDFKP
As for B1, the outflow facility entry is given as “reduced outflow facility; also recorded: significantly decreased outflow facility”.
